# Laboratory results from patent publication US20190040115A1 (IMMATICS BIOTECHNOLOGIES, published 2019).
# B1: FLPRKFPSL (peptide)
# peptide: FLPRKFPSL
# B2: LLEPFVHQV (peptide)
# peptide: LLEPFVHQV
# B3: KMVGDVTGA (peptide)
# peptide: KMVGDVTGA
# B4: HLDEARTLL (peptide)
# peptide: HLDEARTLL
# B5: VLNEYFHNV (peptide)
# peptide: VLNEYFHNV
# B6: LLSEIEEHL (peptide)
# peptide: LLSEIEEHL
# B7: FLLEQEKTQAL (peptide)
# peptide: FLLEQEKTQAL
# B8: LLDSGAFHL (peptide)
# peptide: LLDSGAFHL
# B9: LLDDPTNAHFI (peptide)
# peptide: LLDDPTNAHFI
# B10: LLPDPLYSL (peptide)
# peptide: LLPDPLYSL
# B11: LLSNTVSTL (peptide)
# peptide: LLSNTVSTL
# B12: HLIGWTAFL (peptide)
# peptide: HLIGWTAFL
# B13: SLVAILHLL (peptide)
# peptide: SLVAILHLL
# B14: SVNGFISTL (peptide)
# peptide: SVNGFISTL
# B15: VLFGAVITGA (peptide)
# peptide: VLFGAVITGA
# B16: FLETNVPLL (peptide)
# peptide: FLETNVPLL
# B17: LIDKIIEYL (peptide)
# peptide: LIDKIIEYL
# B18: FIDPEQIQV (peptide)
# peptide: FIDPEQIQV
# B19: NLDYAILKL (peptide)
# peptide: NLDYAILKL
# B20: KLGFGTGVNVYL (peptide)
# peptide: KLGFGTGVNVYL
# B21: ILDDVAMVL (peptide)
# peptide: ILDDVAMVL
# B22: FVYGEPREL (peptide)
# peptide: FVYGEPREL
# B23: KLLELQELVL (peptide)
# peptide: KLLELQELVL
# B24: VLKADVVLL (peptide)
# peptide: VLKADVVLL
# B25: TLWYVPLSL (peptide)
# peptide: TLWYVPLSL
# B26: VLYNESLQL (peptide)
# peptide: VLYNESLQL
# B27: ALDSDPVGL (peptide)
# peptide: ALDSDPVGL
# B28: QLYNQIIKL (peptide)
# peptide: QLYNQIIKL
# B29: YLINFEIRSL (peptide)
# peptide: YLINFEIRSL
# B30: VLFKDPVSV (peptide)
# peptide: VLFKDPVSV
# B31: FLGDPPPGL (peptide)
# peptide: FLGDPPPGL
# B32: ILDEPTNHL (peptide)
# peptide: ILDEPTNHL
# B33: ILDEGHILQL (peptide)
# peptide: ILDEGHILQL
# B34: FLYTYIAKV (peptide)
# peptide: FLYTYIAKV
# B35: GLDSGFHSV (peptide)
# peptide: GLDSGFHSV
# B36: NLDKLYHGL (peptide)
# peptide: NLDKLYHGL
# B37: SLYSYFQKV (peptide)
# peptide: SLYSYFQKV
# B38: ALPPPPASI (peptide)
# peptide: ALPPPPASI
# B39: ALADLQEAV (peptide)
# peptide: ALADLQEAV
# B40: TLKEYLESL (peptide)
# peptide: TLKEYLESL
# B41: HLDQIFQNL (peptide)
# peptide: HLDQIFQNL
# B42: SLLPTEQPRL (peptide)
# peptide: SLLPTEQPRL
# B43: ALFAAGANV (peptide)
# peptide: ALFAAGANV
# B44: ILDEEKFNV (peptide)
# peptide: ILDEEKFNV
# B45: ALLSQDFEL (peptide)
# peptide: ALLSQDFEL
# B46: IVDNTTMQL (peptide)
# peptide: IVDNTTMQL
# B47: KIEDLIKYL (peptide)
# peptide: KIEDLIKYL
# B48: FLNLFNHTL (peptide)
# peptide: FLNLFNHTL
# B49: KTWDQVPFSV (peptide)
# peptide: KTWDQVPFSV
# B50: VMSSTLYTV (peptide)
# peptide: VMSSTLYTV
# B51: KVPEIEVTV (peptide)
# peptide: KVPEIEVTV
# B52: VLFPMDLAL (peptide)
# peptide: VLFPMDLAL
# B53: GLDIITNKV (peptide)
# peptide: GLDIITNKV
# B54: KILPDLNTV (peptide)
# peptide: KILPDLNTV
# Target: T1, HLA-A*02:01 (human)
# T1 construct: captured on streptavidin plates; also called peptide-receptive MHC molecules
# Experiment: UV peptide exchange ELISA (anti-b2m); yield grade: + >10%, ++ >20%, +++ >50, ++++ >75%
# Source text: Candidate peptides for T cell based therapies according to the present invention were further tested for their MHC binding capacity (affinity). The individual peptide-MHC complexes were produced by UV-ligand exchange, where a UV-sensitive peptide is cleaved upon UV-irradiation, and exchanged with the peptide of interest as analyzed. Only peptide candidates that can effectively bind and stabilize the peptide-receptive MHC molecules prevent dissociation of the MHC complexes. To determine the yield of the exchange reaction, an ELISA was performed based on the detection of the light chain (β2m) of stabilized MHC complexes. The assay was performed as generally described in Rodenko et al. (Rodenko et al., 2006).
# 96 well MAXISorp plates (NUNC) were coated over night with 2 ug/ml streptavidin in PBS at room temperature, washed 4× and blocked for 1 h at 37° C. in 2% BSA containing blocking buffer. Refolded HLA-A*02:01/MLA-001 monomers served as standards, covering the range of 15-500 ng/ml. Peptide-MHC monomers of the UV-exchange reaction were diluted 100 fold in blocking buffer. Samples were incubated for 1 h at 37° C., washed four times, incubated with 2 ug/ml HRP conjugated anti-β2m for 1 h at 37° C., washed again and detected with TMB solution that is stopped with […]. Absorption was measured at 450 nm. Candidate peptides that show a high exchange yield (preferably higher than 50%, most preferred higher than 75%) are generally preferred for a generation and production of antibodies or fragments thereof, and/or T cell receptors or fragments thereof, as they show sufficient avidity to the MHC molecules and prevent dissociation of the MHC complexes.
binder,measurement,value
B1,peptide exchange yield,> 75%
B2,peptide exchange yield,> 75%
B3,peptide exchange yield,50 to 75%
B4,peptide exchange yield,> 75%
B5,peptide exchange yield,> 75%
B6,peptide exchange yield,> 75%
B7,peptide exchange yield,> 75%
B8,peptide exchange yield,50 to 75%
B9,peptide exchange yield,50 to 75%
B10,peptide exchange yield,20 to 50%
B11,peptide exchange yield,50 to 75%
B12,peptide exchange yield,> 75%
B13,peptide exchange yield,50 to 75%
B14,peptide exchange yield,20 to 50%
B15,peptide exchange yield,> 75%
B16,peptide exchange yield,50 to 75%
B17,peptide exchange yield,20 to 50%
B18,peptide exchange yield,50 to 75%
B19,peptide exchange yield,10 to 20%
B20,peptide exchange yield,> 75%
B21,peptide exchange yield,50 to 75%
B22,peptide exchange yield,50 to 75%
B23,peptide exchange yield,> 75%
B24,peptide exchange yield,20 to 50%
B25,peptide exchange yield,> 75%
B26,peptide exchange yield,> 75%
B27,peptide exchange yield,50 to 75%
B28,peptide exchange yield,> 75%
B29,peptide exchange yield,> 75%
B30,peptide exchange yield,> 75%
B31,peptide exchange yield,50 to 75%
B32,peptide exchange yield,20 to 50%
B33,peptide exchange yield,> 75%
B34,peptide exchange yield,50 to 75%
B35,peptide exchange yield,> 75%
B36,peptide exchange yield,10 to 20%
B37,peptide exchange yield,> 75%
B38,peptide exchange yield,50 to 75%
B39,peptide exchange yield,> 75%
B40,peptide exchange yield,50 to 75%
B41,peptide exchange yield,20 to 50%
B42,peptide exchange yield,50 to 75%
B43,peptide exchange yield,50 to 75%
B44,peptide exchange yield,50 to 75%
B45,peptide exchange yield,> 75%
B46,peptide exchange yield,50 to 75%
B47,peptide exchange yield,50 to 75%
B48,peptide exchange yield,> 75%
B49,peptide exchange yield,> 75%
B50,peptide exchange yield,> 75%
B51,peptide exchange yield,> 75%
B52,peptide exchange yield,50 to 75%
B53,peptide exchange yield,50 to 75%
B54,peptide exchange yield,> 75%
